Assay results: publication PMC11673000 (2024)

B1: FAT10 wild type (His-3xFLAG-FAT10) [not stated] / NEDD8 ultimate buster-1 long (NUB1L) [not stated] (parent complex)
chain 1: MAPNASCLCVHVRSEEWDLMTFDANPYDSVKKIKEHVRSKTKVPVQDQVLLLGSKILKPRRSLSSYGIDKEKTIHLTLKVVKPSDEELPLFLVESGDEAKRHLLQVRRSSSVAQVKAMIETKTGIIPETQIVTCNGKRLEDGKMMADYGIRKGNLLFLACYCIGG
chain 2: MAQKKYLQAKLTQFLREDRIQLWKPPYTDENKKVGLALKDLAKQYSDRLECCENEVEKVIEEIRCKAIERGTGNDNYRTTGIATIEVFLPPRLKKDRKNLLETRLHITGRELRSKIAETFGLQENYIKIVINKKQLQLGKTLEEQGVAHNVKAMVLELKQSEEDARKNFQLEEEEQNEAKLKEKQIQRTKRGLEILAKRAAETVVDPEMTPYLDIANQTGRSIRIPPSERKALMLAMGYHEKGRAFLKRKEYGIALPCLLDADKYFCECCRELLDTVDNYAVLQLDIVWCYFRLEQLECLDDAEKKLNLAQKCFKNCYGENHQRLVHIKGNCGKEKVLFLRLYLLQGIRNYHSGNDVEAYEYLNKARQLFKELYIDPSKVDNLLQLGFTAQEARLGLRACDGNVDHAATHITNRREELAQIRKEEKEKKRRRLENIRFLKGMGYSTHAAQQVLHAASGNLDEALKILLSNPQMWWLNDSNPETDNRQESPSQENIDRLVYMGFDALVAEAALRVFRGNVQLAAQTLAHNGGSLPPELPLSPEDSLSPPATSPSDSAGTSSASTDEDMETEAVNEILEDIPEHEEDYLDSTLEDEEIIIAEYLSYVENRKSATKKN

Variants of: B1
Experiment: HA-immunoprecipitation, SDS-PAGE and immunoblot (ECL quantification); HEK293T cells transiently co-transfected with HA-NUB1L and FLAG-FAT10; three independent experiments; parent: 4

Variant | response
chain 1 MAPNASCLCVHVRSEEWDLMTFDANPYDSVKKIKEHVRSKTKVPVQDQVLLLGSKILKPRRDLDSYGIDKEKTIHLELKVVKPSDEELPLFLVEDGDEAKRHLLQVRRDSSVAQVKAMIETKTGIIPETQIVTCNGKRLEDGKMMADYGIRKGNLLFLACYCIGG [chain 1 S62D, chain 1 S64D, chain 1 T77E, chain 1 S95D, chain 1 S109D] | 1 IP [FAT10] / Load [FAT10], FAT10 D = 1

Variants of: B1
Experiment: HA-immunoprecipitation, SDS-PAGE and immunoblot (ECL quantification); HEK293T cells transiently co-transfected with HA-NUB1L and FLAG-FAT10; three independent experiments; parent: 4.3

Variant | response
chain 1 MAPNASCLCVHVRSEEWDLMTFDANPYDSVKKIKEHVRSKTKVPVQDQVLLLGSKILKPRRDLDSYGIDKEKTIHLELKVVKPSDEELPLFLVEDGDEAKRHLLQVRRDSSVAQVKAMIETKTGIIPETQIVTCNGKRLEDGKMMADYGIRKGNLLFLACYCIGG [chain 1 S62D, chain 1 S64D, chain 1 T77E, chain 1 S95D, chain 1 S109D] | 1 IP [FAT10] / Load [FAT10], FAT10 D = 1

Variants of: B1
Experiment: HA-immunoprecipitation, SDS-PAGE and immunoblot (ECL quantification); HEK293T cells transiently co-transfected with HA-NUB1L and FLAG-FAT10; three independent experiments; parent: 4; read off a plot

Variant | response
chain 1 MAPNASCLCVHVRSEEWDLMTFDANPYDSVKKIKEHVRSKTKVPVQDQVLLLGSKILKPRRDLSSYGIDKEKTIHLTLKVVKPSDEELPLFLVESGDEAKRHLLQVRRSSSVAQVKAMIETKTGIIPETQIVTCNGKRLEDGKMMADYGIRKGNLLFLACYCIGG [chain 1 S62D] | ~3.4 IP [FAT10] / Load [FAT10], FAT10 D = 1
chain 1 MAPNASCLCVHVRSEEWDLMTFDANPYDSVKKIKEHVRSKTKVPVQDQVLLLGSKILKPRRSLSSYGIDKEKTIHLTLKVVKPSDEELPLFLVEDGDEAKRHLLQVRRSSSVAQVKAMIETKTGIIPETQIVTCNGKRLEDGKMMADYGIRKGNLLFLACYCIGG [chain 1 S95D] | ~2.6 IP [FAT10] / Load [FAT10], FAT10 D = 1
chain 1 MAPNASCLCVHVRSEEWDLMTFDANPYDSVKKIKEHVRSKTKVPVQDQVLLLGSKILKPRRSLSSYGIDKEKTIHLELKVVKPSDEELPLFLVESGDEAKRHLLQVRRSSSVAQVKAMIETKTGIIPETQIVTCNGKRLEDGKMMADYGIRKGNLLFLACYCIGG [chain 1 T77E] | ~0.95 IP [FAT10] / Load [FAT10], FAT10 D = 1
chain 1 MAPNASCLCVHVRSEEWDLMTFDANPYDSVKKIKEHVRSKTKVPVQDQVLLLGSKILKPRRSLDSYGIDKEKTIHLTLKVVKPSDEELPLFLVESGDEAKRHLLQVRRSSSVAQVKAMIETKTGIIPETQIVTCNGKRLEDGKMMADYGIRKGNLLFLACYCIGG [chain 1 S64D] | ~2.6 IP [FAT10] / Load [FAT10], FAT10 D = 1
chain 1 MAPNASCLCVHVRSEEWDLMTFDANPYDSVKKIKEHVRSKTKVPVQDQVLLLGSKILKPRRSLSSYGIDKEKTIHLTLKVVKPSDEELPLFLVESGDEAKRHLLQVRRDSSVAQVKAMIETKTGIIPETQIVTCNGKRLEDGKMMADYGIRKGNLLFLACYCIGG [chain 1 S109D] | ~3 IP [FAT10] / Load [FAT10], FAT10 D = 1

Variants of: B1
Experiment: HA-immunoprecipitation, SDS-PAGE and immunoblot (ECL quantification); HEK293T cells transiently co-transfected with HA-NUB1L and FLAG-FAT10; three independent experiments; parent: 4.3; read off a plot

Variant | response
chain 1 MAPNASCLCVHVRSEEWDLMTFDANPYDSVKKIKEHVRSKTKVPVQDQVLLLGSKILKPRRSLSSYGIDKEKTIHLELKVVKPSDEELPLFLVESGDEAKRHLLQVRRSSSVAQVKAMIETKTGIIPETQIVTCNGKRLEDGKMMADYGIRKGNLLFLACYCIGG [chain 1 T77E] | ~1.8 IP [FAT10] / Load [FAT10], FAT10 D = 1
chain 1 MAPNASCLCVHVRSEEWDLMTFDANPYDSVKKIKEHVRSKTKVPVQDQVLLLGSKILKPRRDLSSYGIDKEKTIHLELKVVKPSDEELPLFLVESGDEAKRHLLQVRRSSSVAQVKAMIETKTGIIPETQIVTCNGKRLEDGKMMADYGIRKGNLLFLACYCIGG [chain 1 S62D, chain 1 T77E] | ~2.8 IP [FAT10] / Load [FAT10], FAT10 D = 1
chain 1 MAPNASCLCVHVRSEEWDLMTFDANPYDSVKKIKEHVRSKTKVPVQDQVLLLGSKILKPRRSLDSYGIDKEKTIHLELKVVKPSDEELPLFLVESGDEAKRHLLQVRRSSSVAQVKAMIETKTGIIPETQIVTCNGKRLEDGKMMADYGIRKGNLLFLACYCIGG [chain 1 S64D, chain 1 T77E] | ~2.5 IP [FAT10] / Load [FAT10], FAT10 D = 1
chain 1 MAPNASCLCVHVRSEEWDLMTFDANPYDSVKKIKEHVRSKTKVPVQDQVLLLGSKILKPRRDLDSYGIDKEKTIHLELKVVKPSDEELPLFLVESGDEAKRHLLQVRRSSSVAQVKAMIETKTGIIPETQIVTCNGKRLEDGKMMADYGIRKGNLLFLACYCIGG [chain 1 S62D, chain 1 S64D, chain 1 T77E] | ~1.9 IP [FAT10] / Load [FAT10], FAT10 D = 1
chain 1 MAPNASCLCVHVRSEEWDLMTFDANPYDSVKKIKEHVRSKTKVPVQDQVLLLGSKILKPRRDLDSYGIDKEKTIHLTLKVVKPSDEELPLFLVESGDEAKRHLLQVRRSSSVAQVKAMIETKTGIIPETQIVTCNGKRLEDGKMMADYGIRKGNLLFLACYCIGG [chain 1 S62D, chain 1 S64D] | ~4.7 IP [FAT10] / Load [FAT10], FAT10 D = 1
chain 1 MAPNASCLCVHVRSEEWDLMTFDANPYDSVKKIKEHVRSKTKVPVQDQVLLLGSKILKPRRDLDSYGIDKEKTIHLTLKVVKPSDEELPLFLVEDGDEAKRHLLQVRRDSSVAQVKAMIETKTGIIPETQIVTCNGKRLEDGKMMADYGIRKGNLLFLACYCIGG [chain 1 S62D, chain 1 S64D, chain 1 S95D, chain 1 S109D] | ~7.7 IP [FAT10] / Load [FAT10], FAT10 D = 1
